This passage reports excess over IL-1α giving 50% inhibition of the NFκB reporter response (fold excess over IL-1α) results from patent US20020102234A1.

The target of this assay is human IL-1R1 (IL-1 receptor type I), full length, expressed in transfected Jurkat E6.1 cells (human) (UniProt P14778). The assay can be described thus: cell-based or functional assay.
Sequence of UniProt P14778 (P14778 18-569): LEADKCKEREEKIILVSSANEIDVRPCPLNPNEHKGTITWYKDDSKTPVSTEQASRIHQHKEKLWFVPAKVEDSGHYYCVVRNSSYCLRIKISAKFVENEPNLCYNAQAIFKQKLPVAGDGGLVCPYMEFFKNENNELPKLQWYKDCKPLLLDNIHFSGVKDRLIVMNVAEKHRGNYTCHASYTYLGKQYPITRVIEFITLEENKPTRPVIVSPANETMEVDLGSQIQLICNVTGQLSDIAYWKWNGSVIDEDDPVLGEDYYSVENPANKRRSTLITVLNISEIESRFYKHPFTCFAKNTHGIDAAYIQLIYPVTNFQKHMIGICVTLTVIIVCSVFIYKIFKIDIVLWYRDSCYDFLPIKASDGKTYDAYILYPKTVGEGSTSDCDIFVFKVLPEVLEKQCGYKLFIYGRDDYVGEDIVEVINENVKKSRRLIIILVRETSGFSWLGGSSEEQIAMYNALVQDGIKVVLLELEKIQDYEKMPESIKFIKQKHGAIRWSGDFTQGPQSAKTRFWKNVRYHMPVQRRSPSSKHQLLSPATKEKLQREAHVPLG

As to “recombinant human IL-1RA (IL-1 receptor antagonist) (from UniProt P18510 26-177) (ligand)”, the excess over IL-1α giving 50% inhibition of the NFκB reporter response (fold excess over IL-1α) was found to be 1000.
